These results are taken from publication PMC9695703, “Selection of an Aptamer against the Enzyme 1-deoxy-D-xylulose-5-phosphate Reductoisomerase from Plasmodium falciparum”.

One data set has as its target T1, EcDXR-6His (Escherichia coli, UniProt P45568 1-398).
T1 sequence: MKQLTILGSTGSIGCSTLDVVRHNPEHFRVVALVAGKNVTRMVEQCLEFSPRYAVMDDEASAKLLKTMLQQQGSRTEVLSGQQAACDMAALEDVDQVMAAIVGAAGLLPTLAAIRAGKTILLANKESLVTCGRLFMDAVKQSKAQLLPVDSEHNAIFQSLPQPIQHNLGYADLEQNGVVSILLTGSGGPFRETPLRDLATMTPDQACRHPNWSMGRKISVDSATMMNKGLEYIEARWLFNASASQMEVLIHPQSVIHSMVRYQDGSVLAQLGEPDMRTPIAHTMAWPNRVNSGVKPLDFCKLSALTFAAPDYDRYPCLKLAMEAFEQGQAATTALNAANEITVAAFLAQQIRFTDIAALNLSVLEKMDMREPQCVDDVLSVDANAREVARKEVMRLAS
As to the kind of experiment: bead-based flow cytometry saturation binding; protein on latex beads; Bmax 1.67; Kd: PBS pH 7.4, 60 min, dark, 0.3-5.4 uM aptamer; EMSA: 10 mM NaCl, 0.02% Tween-20, 50 mM HEPES pH 8.0, RT 60 min, 2% agarose 0.5x TB. To be noted: protein: recombinant; tags: C-term 6xHis; label: 5' 6FAM; folded 90/5/37 C before use. In general terms: Mobility shift assays separate free from complexed probe on a gel.

The target in data set [1] is T2, 6His-GST-PfDXRt-6His (1-deoxy-D-xylulose-5-phosphate reductoisomerase) (Plasmodium falciparum, UniProt Q8IKG4 73-488).
T2 sequence: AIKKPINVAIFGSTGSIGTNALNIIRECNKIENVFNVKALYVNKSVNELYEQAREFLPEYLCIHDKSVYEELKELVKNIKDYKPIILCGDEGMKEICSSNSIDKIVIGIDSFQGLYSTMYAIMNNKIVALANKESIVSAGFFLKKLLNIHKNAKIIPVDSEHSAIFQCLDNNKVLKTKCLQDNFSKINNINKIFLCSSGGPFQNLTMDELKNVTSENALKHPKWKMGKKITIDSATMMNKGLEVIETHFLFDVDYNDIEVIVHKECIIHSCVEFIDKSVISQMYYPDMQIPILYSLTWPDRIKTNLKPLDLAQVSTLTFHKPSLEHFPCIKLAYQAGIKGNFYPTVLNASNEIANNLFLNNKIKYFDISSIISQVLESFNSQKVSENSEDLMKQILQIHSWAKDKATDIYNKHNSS
In words: bead-based flow cytometry saturation binding; protein on latex beads; Bmax 0.79. To be noted: protein: recombinant; tags: N-term 6xHis-GST, C-term 6xHis; label: 5' 6FAM; folded 90/5/37 C before use. (Flow cytometry measures light scatter and fluorescence of single cells or particles in a stream.)

As usually defined, the Kd is the concentration at which binding is half-saturated.

B1: 6FAM-D10 (ssDNA)
DNA: ATACCAGCTTATTCAATTCACTGCCACACCACGCCCTGCCATCCGCACATCCATCGTGAGATAGTAAGTGCAATCT
On to B1, for which the Kd with EcDXR-6His was determined as 290 ± 90 nM; in data set [1], 260 ± 70 nM.
